Laboratory results reported in IntAct's records for PubMed 19850040.

B1: Post-transcriptional regulator MTA (Human herpesvirus 8), Q2HR75 (parent)
chain: MVQAMIDMDIMKGILEDSVSSSEFDESRDDETDAPTLEDEQLSEPAEPPADERIRGTQSAQGIPPPLGRIPKKSQGRSQLRSEIQFCSPLSRPRSPSPVNRYGKKIKFGTAGQNTRPPPEKRPRRRPRDRLQYGRTTRGGQCRAAPKRATRRPQVNCQRQDDDVRQGVSDAVKKLRLPASMIIDGESPRFDDSIIPRHHGACFNVFIPAPPSHVPEVFTDRDITALIRAGGKDDELINKKISAKKIDHLHRQMLSFVTSRHNQAYWVSCRRETAAAGGLQTLGAFVEEQMTWAQTVVRHGGWFDEKDIDIILDTAIFVCNAFVTRFRLLHLSCVFDKQSELALIKQVAYLVAMGNRLVEACNLLGEVKLNFRGGLLLAFVLTIPGMQSRRSISARGQELFRTLLEYYRPGDVMGLLNVIVMEHHSLCRNSECAAATRAAMGSAKFNKGLFFYPLS

Variants of: B1
Settings: with thoc4_human ALYREF

Row | Variant | effect of a mutation on the interaction
1 | MVQAMIDMDIMKGILEDSVSSSEFDESRDDETDAPTLEDEQLSEPAEPPADERIRGTQSAQGIPPPLGRIPKKSQGRSQLRSEIQFCSPLSRPRSPSPVNRYGKNIKFGTAGQNTRPPPEKRPRRRPRDRLQYGRTTRGGQCRAAPKRATRRPQVNCQRQDDDVRQGVSDAVKKLRLPASMIIDGESPRFDDSIIPRHHGACFNVFIPAPPSHVPEVFTDRDITALIRAGGKDDELINKKISAKKIDHLHRQMLSFVTSRHNQAYWVSCRRETAAAGGLQTLGAFVEEQMTWAQTVVRHGGWFDEKDIDIILDTAIFVCNAFVTRFRLLHLSCVFDKQSELALIKQVAYLVAMGNRLVEACNLLGEVKLNFRGGLLLAFVLTIPGMQSRRSISARGQELFRTLLEYYRPGDVMGLLNVIVMEHHSLCRNSECAAATRAAMGSAKFNKGLFFYPLS [K105N] | disrupting interaction
2 | MVQAMIDMDIMKGILEDSVSSSEFDESRDDETDAPTLEDEQLSEPAEPPADERIRGTQSAQGIPPPLGRIPKKSQGRSQLRSEIQFCSPLSRPRSPSPVNRYGKKIEFGTAGQNTRPPPEKRPRRRPRDRLQYGRTTRGGQCRAAPKRATRRPQVNCQRQDDDVRQGVSDAVKKLRLPASMIIDGESPRFDDSIIPRHHGACFNVFIPAPPSHVPEVFTDRDITALIRAGGKDDELINKKISAKKIDHLHRQMLSFVTSRHNQAYWVSCRRETAAAGGLQTLGAFVEEQMTWAQTVVRHGGWFDEKDIDIILDTAIFVCNAFVTRFRLLHLSCVFDKQSELALIKQVAYLVAMGNRLVEACNLLGEVKLNFRGGLLLAFVLTIPGMQSRRSISARGQELFRTLLEYYRPGDVMGLLNVIVMEHHSLCRNSECAAATRAAMGSAKFNKGLFFYPLS [K107E] | disrupting interaction
3 | MVQAMIDMDIMKGILEDSVSSSEFDESRDDETDAPTLEDEQLSEPAEPPADERIRGTQSAQGIPPPLGRIPKKSQGRSQLRSEIQFCSPLSRPRSPSPVNRYGNKIKFGTAGQNTRPPPEKRPRRRPRDRLQYGRTTRGGQCRAAPKRATRRPQVNCQRQDDDVRQGVSDAVKKLRLPASMIIDGESPRFDDSIIPRHHGACFNVFIPAPPSHVPEVFTDRDITALIRAGGKDDELINKKISAKKIDHLHRQMLSFVTSRHNQAYWVSCRRETAAAGGLQTLGAFVEEQMTWAQTVVRHGGWFDEKDIDIILDTAIFVCNAFVTRFRLLHLSCVFDKQSELALIKQVAYLVAMGNRLVEACNLLGEVKLNFRGGLLLAFVLTIPGMQSRRSISARGQELFRTLLEYYRPGDVMGLLNVIVMEHHSLCRNSECAAATRAAMGSAKFNKGLFFYPLS [K104N] | disrupting interaction
